Test results reported in patent US20240066131A1 (Protagonist Therapeutics, Inc., priority 2020, published 2024).
Starred links: 1 amine or outer side, 2 acyl side, 3 side chain; linkers in the order of their positions; H or OH if unused. Positions of bridges follow the written chain, without caps; N, C: chain ends. Non-standard residues stand in square brackets, D forms with d. Groups on a side chain read outwards from the residue. No end group written: not given here. *: point of attachment. N_Butyl_Phe = CCCCN([C@@H](Cc1ccccc1)C(=O)[*:2])[*:1]; C18 diacid = O=C(O)CCCCCCCCCCCCCCCCC(=O)*; Dip = N[C@H](C(=O)O)C(c1ccccc1)c1ccccc1; γGlu = O=C(O)[C@H](CCC(=O)[*:2])N[*:1]; Palmitoyl = CCCCCCCCCCCCCCCC(=O)*; β3hF = N[C@H](CC(=O)O)Cc1ccccc1; Isovaleryl = CC(C)CC(=O)*; Dap = NC[C@H](N)C(=O)O; AEEA = NCCOCCOCC(=O)O; Ahx = NCCCCCC(=O)O; NHPr = CCCN*

T1: human ferroportin (SLC40A1) fused in frame with GFP, stably expressed in HEK293 cells (human, UniProt Q9NP59 1-571)
T1 sequence (looked up): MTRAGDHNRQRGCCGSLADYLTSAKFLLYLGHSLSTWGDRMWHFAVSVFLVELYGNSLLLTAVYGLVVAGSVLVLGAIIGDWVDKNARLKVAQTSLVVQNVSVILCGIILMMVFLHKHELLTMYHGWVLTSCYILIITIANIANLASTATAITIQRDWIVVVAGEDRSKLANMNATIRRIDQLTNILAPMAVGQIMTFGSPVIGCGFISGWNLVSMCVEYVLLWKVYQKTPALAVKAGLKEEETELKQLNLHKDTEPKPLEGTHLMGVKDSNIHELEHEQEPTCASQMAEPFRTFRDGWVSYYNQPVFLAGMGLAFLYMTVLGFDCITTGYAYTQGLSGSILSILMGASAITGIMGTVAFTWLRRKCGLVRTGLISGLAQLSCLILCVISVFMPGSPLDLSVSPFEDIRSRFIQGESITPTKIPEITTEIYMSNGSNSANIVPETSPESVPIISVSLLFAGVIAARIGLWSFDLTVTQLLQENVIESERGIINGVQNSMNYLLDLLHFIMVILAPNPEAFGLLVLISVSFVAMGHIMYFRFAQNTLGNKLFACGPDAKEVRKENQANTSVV


Target: T1, human ferroportin (SLC40A1) fused in …
Assay: cell-based or functional assay

FPN IC50 [nM]	Binder
> 3000	Isovaleryl-LTH[Dip]K([AEEA-AEEA-γGlu-C18 diacid])[N_Ethyl_Phe] [Isovaleric Acid-L-T-H-[Dpa]-[Lys(1PEG2_1PEG2 IsoGlu_C18_Diacid)]-N_Ethyl Phe]
> 3000	Ac-K([AEEA-AEEA-Ahx-C18 diacid])TH[Dip]PAI[dK][β3hF]-NH2 (SMILES CC[C@H](C)[C@H](NC(=O)[C@H](C)NC(=O)[C@@H]1CCCN1C(=O)[C@@H](NC(=O)[C@H](Cc1c[nH]cn1)NC(=O)[C@@H](NC(=O)[C@H](CCCCNC(=O)COCCOCCNC(=O)COCCOCCNC(=O)CCCCCNC(=O)CCCCCCCCCCCCCCCCC(=O)O)NC(C)=O)[C@@H](C)O)C(c1ccccc1)c1ccccc1)C(=O)N[C@H](CCCCN)C(=O)N[C@H](CC(N)=O)Cc1ccccc1) [Ac-[Lys(1PEG2_1PEG2_Ahx_C18_Diacid)]-T-H-[Dpa]-P-A-I-[(D)Lys]-[bhPhe]-NH2]
> 10000	Isovaleryl-ETHFPEIK([AEEA-AEEA-γGlu-C18 diacid])FEPRSKG[Dap]K-NH2 (lactam 6-16; SMILES CC[C@H](C)[C@@H]1NC(=O)[C@@H](NC(=O)[C@@H]2CCCN2C(=O)[C@H](Cc2ccccc2)NC(=O)[C@H](Cc2c[nH]cn2)NC(=O)[C@@H](NC(=O)[C@H](CCC(=O)O)NC(=O)CC(C)C)[C@@H](C)O)CCC(=O)NC[C@@H](C(=O)N[C@@H](CCCCN)C(N)=O)NC(=O)CNC(=O)[C@H](CCCCN)NC(=O)[C@H](CO)NC(=O)[C@H](CCCNC(=N)N)NC(=O)[C@@H]2CCCN2C(=O)[C@H](CCC(=O)O)NC(=O)[C@H](Cc2ccccc2)NC(=O)[C@H](CCCCNC(=O)COCCOCCNC(=O)COCCOCCNC(=O)CC[C@H](NC(=O)CCCCCCCCCCCCCCCCC(=O)O)C(=O)O)NC1=O) [Isovaleric Acid-E-T-H-F-P-E-I-[Lys(1PEG2_1PEG2_IsoGlu_C18_Diacid)]-F-E-P-R-S-K-G-Dap-K-NH2]
2160	Isovaleryl-K([AEEA-AEEA-γGlu-C18 diacid])TH[Dip]PAI[dK][β3hF]-NH2 (SMILES CC[C@H](C)[C@H](NC(=O)[C@H](C)NC(=O)[C@@H]1CCCN1C(=O)[C@@H](NC(=O)[C@H](Cc1c[nH]cn1)NC(=O)[C@@H](NC(=O)[C@H](CCCCNC(=O)COCCOCCNC(=O)COCCOCCNC(=O)CC[C@H](NC(=O)CCCCCCCCCCCCCCCCC(=O)O)C(=O)O)NC(=O)CC(C)C)[C@@H](C)O)C(c1ccccc1)c1ccccc1)C(=O)N[C@H](CCCCN)C(=O)N[C@H](CC(N)=O)Cc1ccccc1) [Isovaleric Acid-[Lys(1PEG2_1PEG2_IsoGlu_C18_Diacid)]-T-H-[Dpa]-P-A-I-[(D)Lys]-[bhPhe]-NH2]
> 3000	Isovaleryl-LTH[Dip]K([AEEA-AEEA-γGlu-C18 diacid])-NHPr (SMILES CCCNC(=O)[C@H](CCCCNC(=O)COCCOCCNC(=O)COCCOCCNC(=O)CC[C@H](NC(=O)CCCCCCCCCCCCCCCCC(=O)O)C(=O)O)NC(=O)[C@@H](NC(=O)[C@H](Cc1c[nH]cn1)NC(=O)[C@@H](NC(=O)[C@H](CC(C)C)NC(=O)CC(C)C)[C@@H](C)O)C(c1ccccc1)c1ccccc1) [Isovaleric Acid-L-T-H-[Dpa]-[Lys(1PEG2_1PEG2_IsoGlu_C18_Diacid)]-Propyl_Amine]

Further lines, the binder ahead of its results:

Binder	FPN IC50 [nM]
Isovaleryl-ETHFPDIK([AEEA-AEEA-γGlu-C18 diacid])FEPRSKG[Dap]K-NH2 (lactam 6-16; SMILES CC[C@H](C)[C@@H]1NC(=O)[C@@H](NC(=O)[C@@H]2CCCN2C(=O)[C@H](Cc2ccccc2)NC(=O)[C@H](Cc2c[nH]cn2)NC(=O)[C@@H](NC(=O)[C@H](CCC(=O)O)NC(=O)CC(C)C)[C@@H](C)O)CC(=O)NC[C@@H](C(=O)N[C@@H](CCCCN)C(N)=O)NC(=O)CNC(=O)[C@H](CCCCN)NC(=O)[C@H](CO)NC(=O)[C@H](CCCNC(=N)N)NC(=O)[C@@H]2CCCN2C(=O)[C@H](CCC(=O)O)NC(=O)[C@H](Cc2ccccc2)NC(=O)[C@H](CCCCNC(=O)COCCOCCNC(=O)COCCOCCNC(=O)CC[C@H](NC(=O)CCCCCCCCCCCCCCCCC(=O)O)C(=O)O)NC1=O) [Isovaleric Acid-E-T-H-F-P-D-I-[Lys(1PEG2_1PEG2_IsoGlu_C18_Diacid)]-F-E-P-R-S-K-G-Dap-K-NH2]	> 10000
Isovaleryl-LTH[Dip]K([AEEA-AEEA-γGlu-C18 diacid])[N_Butyl_Phe] [Isovaleric Acid-L-T-H-[Dpa]-[Lys(1PEG2_1PEG2_IsoGlu_C18_Diacid)]-N_Butyl Phe]	> 3000
Isovaleryl-LTH[Dip]PK([Ahx-Palmitoyl])[N_Butyl_Phe] [Isovaleric Acid-L-T-H-[Dpa]-P-[Lys(Ahx_Palm)]-N_Butyl_Phe]	74
Isovaleryl-K([AEEA-AEEA-Ahx-C18 diacid])TH[Dip]PAI[dK][β3hF]-NH2 (SMILES CC[C@H](C)[C@H](NC(=O)[C@H](C)NC(=O)[C@@H]1CCCN1C(=O)[C@@H](NC(=O)[C@H](Cc1c[nH]cn1)NC(=O)[C@@H](NC(=O)[C@H](CCCCNC(=O)COCCOCCNC(=O)COCCOCCNC(=O)CCCCCNC(=O)CCCCCCCCCCCCCCCCC(=O)O)NC(=O)CC(C)C)[C@@H](C)O)C(c1ccccc1)c1ccccc1)C(=O)N[C@H](CCCCN)C(=O)N[C@H](CC(N)=O)Cc1ccccc1) [Isovaleric Acid-[Lys(1PEG2_1PEG2_Ahx_C18_Diacid)]-T-H-[Dpa]-P-A-I-[(D)Lys]-[bhPhe]-NH2]	1280
Isovaleryl-ETHFP[Dap]IK([AEEA-AEEA-γGlu-C18 diacid])FEPRSKGEK-NH2 (lactam 6-16; SMILES CC[C@H](C)[C@@H]1NC(=O)[C@@H](NC(=O)[C@@H]2CCCN2C(=O)[C@H](Cc2ccccc2)NC(=O)[C@H](Cc2c[nH]cn2)NC(=O)[C@@H](NC(=O)[C@H](CCC(=O)O)NC(=O)CC(C)C)[C@@H](C)O)CNC(=O)CC[C@@H](C(=O)N[C@@H](CCCCN)C(N)=O)NC(=O)CNC(=O)[C@H](CCCCN)NC(=O)[C@H](CO)NC(=O)[C@H](CCCNC(=N)N)NC(=O)[C@@H]2CCCN2C(=O)[C@H](CCC(=O)O)NC(=O)[C@H](Cc2ccccc2)NC(=O)[C@H](CCCCNC(=O)COCCOCCNC(=O)COCCOCCNC(=O)CC[C@H](NC(=O)CCCCCCCCCCCCCCCCC(=O)O)C(=O)O)NC1=O) [Isovaleric Acid-E-T-H-F-P-Dap-I-[Lys(1PEG2_1PEG2_IsoGlu_C18_Diacid)]-F-E-P-R-S-K-G-E-K-NH2]	> 10000
Ac-K([AEEA-AEEA-γGlu-C18 diacid])TH[Dip]PAI[dK][β3hF]-NH2 (SMILES CC[C@H](C)[C@H](NC(=O)[C@H](C)NC(=O)[C@@H]1CCCN1C(=O)[C@@H](NC(=O)[C@H](Cc1c[nH]cn1)NC(=O)[C@@H](NC(=O)[C@H](CCCCNC(=O)COCCOCCNC(=O)COCCOCCNC(=O)CC[C@H](NC(=O)CCCCCCCCCCCCCCCCC(=O)O)C(=O)O)NC(C)=O)[C@@H](C)O)C(c1ccccc1)c1ccccc1)C(=O)N[C@H](CCCCN)C(=O)N[C@H](CC(N)=O)Cc1ccccc1) [Ac-[Lys(1PEG2_1PEG2_IsoGlu_C18_Diacid)]-T-H-[Dpa]-P-A-I-[(D)Lys]-[bhPhe]-NH2]	3370
Isovaleryl-ETHFP[Dap]IK([AEEA-AEEA-γGlu-C18 diacid])FEPRSKGDK-NH2 (lactam 6-16; SMILES CC[C@H](C)[C@@H]1NC(=O)[C@@H](NC(=O)[C@@H]2CCCN2C(=O)[C@H](Cc2ccccc2)NC(=O)[C@H](Cc2c[nH]cn2)NC(=O)[C@@H](NC(=O)[C@H](CCC(=O)O)NC(=O)CC(C)C)[C@@H](C)O)CNC(=O)C[C@@H](C(=O)N[C@@H](CCCCN)C(N)=O)NC(=O)CNC(=O)[C@H](CCCCN)NC(=O)[C@H](CO)NC(=O)[C@H](CCCNC(=N)N)NC(=O)[C@@H]2CCCN2C(=O)[C@H](CCC(=O)O)NC(=O)[C@H](Cc2ccccc2)NC(=O)[C@H](CCCCNC(=O)COCCOCCNC(=O)COCCOCCNC(=O)CC[C@H](NC(=O)CCCCCCCCCCCCCCCCC(=O)O)C(=O)O)NC1=O) [Isovaleric Acid-E-T-H-F-P-Dap-I-[Lys(1PEG2_1PEG2_IsoGlu_C18_Diacid)]-F-E-P-R-S-K-G-D-K-NH2]	6110
Isovaleryl-LTH[Dip]K([AEEA-AEEA-γGlu-C18 diacid])-Benzyl_Amine [Isovaleric Acid-L-T-H-[Dpa]-[Lys(1PEG2_1PEG2_IsoGlu_C18_Diacid)]-Benzyl_Amine]	> 3000
